Consider 28 molecules from patent US20240116985A1 (published 2024).

Starred links: 1 amine or outer side, 2 acyl side, 3 side chain; linkers in the order of their positions; H or OH if unused. Positions of bridges follow the written chain, without caps; N, C: chain ends. Non-standard residues stand in square brackets, D forms with d. Primed or numbered codes have the meaning given here. B5(15) = 2-amino-2-(pent-4-en-1-yl)hept-6-enoic acid (2,2-bis(4-pentenyl)glycine), stitching residue bearing two staples, C=CCCCC(CCCC=C)(N[*:1])C(=O)[*:2]; PyrS2″ = (S)-3-amino-1-((pent-4-en-1-yloxy)carbonyl)pyrrolidine-3-carboxylic acid (stapling residue), C=CCCCOC(=O)N1CC[C@@](N[*:1])(C(=O)[*:2])C1; B5(23) = 2-amino-2-(pent-4-en-1-yl)hept-6-enoic acid (2,2-bis(4-pentenyl)glycine), stitching residue, C=CCCCC(CCCC=C)(N[*:1])C(=O)[*:2]; B5(32) = 2-amino-2-(pent-4-en-1-yl)hept-6-enoic acid (bis-4-pentenylglycine, two alkene side chains), C=CCCCC(CCCC=C)(N[*:1])C(=O)[*:2]; B5(4) = 2,2-bis(4-pentenyl)glycine = 2-amino-2-(pent-4-en-1-yl)hept-6-enoic acid (stitching residue), C=CCCCC(CCCC=C)(N[*:1])C(=O)[*:2]; PyrS2 = (S)-3-amino-1-((pent-4-en-1-yloxy)carbonyl)pyrrolidine-3-carboxylic acid, C=CCCCOC(=O)N1CC[C@@](N[*:1])(C(=O)[*:2])C1; 3Br4FF = (S)-2-amino-3-(3-bromo-4-fluorophenyl)propanoic acid, O=C([C@H](Cc1ccc(F)c(Br)c1)N[*:1])[*:2]; B5(3) = 2,2-bis(4-pentenyl)glycine (stitching residue), C=CCCCC(CCCC=C)(N[*:1])C(=O)[*:2]; B5(28) = 2,2-bis(4-pentenyl)glycine, C=CCCCC(CCCC=C)(N[*:1])C(=O)[*:2]; Phe(3-COOH) = N[C@@H](Cc1cccc(C(=O)O)c1)C(=O)O; Phe(2-CF3) = N[C@@H](Cc1ccccc1C(F)(F)F)C(=O)O; Phe(3,4-Me2) = Cc1ccc(C[C@H](N)C(=O)O)cc1C; Bta = N[C@@H](Cc1csc2ccccc12)C(=O)O; αAllylPro = C=CC[C@@]1(C(=O)O)CCCN1; tBuAla = CC(C)(C)C[C@H](N)C(=O)O; 3Thi = N[C@@H](Cc1ccsc1)C(=O)O; S8 = C=CCCCCCC[C@](C)(N)C(=O)O; hLeu = CC(C)CC[C@H](N)C(=O)O; PyrS2(4) = not defined here; hSer = N[C@@H](CCO)C(=O)O; Aib = CC(C)(N)C(=O)O

Experiment [1] concerns the target T1, B-cat-Halo (UniProt P35222 1-781).
T1 sequence (looked up): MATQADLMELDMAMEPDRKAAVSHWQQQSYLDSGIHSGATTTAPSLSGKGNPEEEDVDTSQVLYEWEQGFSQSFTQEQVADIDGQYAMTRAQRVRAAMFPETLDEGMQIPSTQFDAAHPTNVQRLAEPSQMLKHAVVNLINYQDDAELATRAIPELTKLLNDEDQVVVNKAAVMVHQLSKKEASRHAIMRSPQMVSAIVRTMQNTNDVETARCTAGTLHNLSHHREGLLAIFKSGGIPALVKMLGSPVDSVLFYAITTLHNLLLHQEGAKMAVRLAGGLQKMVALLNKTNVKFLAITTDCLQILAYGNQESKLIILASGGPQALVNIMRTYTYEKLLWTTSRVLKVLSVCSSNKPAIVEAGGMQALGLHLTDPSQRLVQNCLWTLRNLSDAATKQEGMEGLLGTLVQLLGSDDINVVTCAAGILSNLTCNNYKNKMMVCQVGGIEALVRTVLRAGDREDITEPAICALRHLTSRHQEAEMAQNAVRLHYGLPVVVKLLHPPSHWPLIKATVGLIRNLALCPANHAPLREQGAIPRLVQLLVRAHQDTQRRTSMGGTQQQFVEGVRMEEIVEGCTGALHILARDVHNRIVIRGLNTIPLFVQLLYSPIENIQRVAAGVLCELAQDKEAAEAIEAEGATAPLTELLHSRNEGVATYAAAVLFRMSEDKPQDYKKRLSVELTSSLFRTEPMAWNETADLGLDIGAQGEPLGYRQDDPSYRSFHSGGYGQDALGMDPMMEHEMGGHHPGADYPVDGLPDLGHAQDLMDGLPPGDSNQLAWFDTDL
Kind of experiment: cell-based or functional assay.

The target of experiment [2] is T2, B-cat-Halo (beta-catenin HaloTag NanoBRET construct expressed in HEK293 cells) (UniProt P35222 1-781).
T2 sequence (looked up): T1 sequence (looked up)
Nature of the experiment: cell-based or functional assay.

B1: I-2278 (peptide)
peptide: Ac-[αAllylPro]D[tBuAla][B5(32)]D[Phe(3-COOH)]AAFL[PyrS2][3Thi][Bta]NALL-NH2
modifications: staple 1-4, 4-11; also: later eluting staple isomer
B1: in experiment [1], the “NanoBRET Abs IC50” value was determined as 2.8 µM.

B2: I-2279 (peptide)
peptide: Ac-[αAllylPro]D[tBuAla][B5(32)]D[Phe(3-COOH)]AAFL[PyrS2][3Thi][Bta]NLLLLL-NH2
modifications: staple 1-4, 4-11; also: earlier eluting staple isomer
On to B2, for which, in experiment [1], the “NanoBRET Abs IC50” value was greater than 20 µM.

B3: I-2290 (peptide)
peptide: Ac-[αAllylPro]D[tBuAla][B5(4)]D[Phe(3-COOH)]QAFL[PyrS2][Phe(2-CF3)][3Br4FF]A-NH2
modifications: staple 1-4, 4-11
For B3, in experiment [1], the “NanoBRET Abs IC50” value was found to be 7.9 µM.

B4: I-2288 (peptide)
peptide: Ac-[αAllylPro]D[tBuAla][B5(4)]D[Phe(3-COOH)]QAFV[PyrS2][3Thi][3Br4FF]A-NH2
modifications: staple 1-4, 4-11
With B4, the “NanoBRET Abs IC50” value in experiment [1] worked out at 6.7 µM.

B5: I-2273 (peptide)
peptide: Ac-[αAllylPro]D[tBuAla][B5(3)]D[Phe(3-COOH)]AAFL[PyrS2″][3Thi][Bta]NA[Aib]A[Aib]A[Aib]A-NH2
modifications: staple 1-4, 4-11
For B5, the “NanoBRET Abs IC50” value in experiment [1] was 6.2 µM.

B6: I-2287 (peptide)
peptide: Ac-[αAllylPro]D[tBuAla][B5(4)]D[Phe(3-COOH)]AAFL[PyrS2][3Thi][3Br4FF]Q-NH2
modifications: staple 1-4, 4-11
On to B6, for which the “NanoBRET Abs IC50” value in experiment [1] amounted to 7.1 µM.

B7: I-1555 (peptide)
peptide: Ac-[αAllylPro]D[tBuAla][B5(23)]NNAAFN[PyrS2][3Thi][Bta]Q-NH2
modifications: staple 1-4, 4-11
As to B7, the “NanoBRET Abs IC50” value in experiment [2] is 29.3 µM.

B8: I-2272 (peptide)
peptide: Ac-[αAllylPro]D[tBuAla][B5(3)]D[Phe(3-COOH)]AAFL[PyrS2″][3Thi][Bta]NA[Aib]A[Aib]A-NH2
modifications: staple 1-4, 4-11
On to B8, for which the “NanoBRET Abs IC50” value in experiment [1] is 3 µM.

B9: I-1538 (peptide)
peptide: Ac-[αAllylPro]D[hLeu][B5(15)]DEAAF[hSer][S8]F[Bta]Q-NH2
modifications: staple 1-4, 4-11; not fully specified; printed as Ac-PL3-Asp-Hleu-B5-Asp-Glu-Ala-Ala-Phe-Hse-S8-Phe-BztA-Gln-NH2
For the molecule B9, the “NanoBRET Abs IC50” value in experiment [2] came out at 11.8 µM.

B10: I-1537 (peptide)
peptide: Ac-[αAllylPro]D[hLeu][B5(15)]DEAAF[hSer][S8]F[Bta]Q-NH2
modifications: staple 1-4, 4-11; not fully specified; printed as Ac-PL3-Asp-Hleu-B5-Asp-Glu-Ala-Ala-Phe-Hse-S8-Phe-BztA-Gln-NH2
With B10, the “NanoBRET Abs IC50” value in experiment [2] worked out at 13.9 µM.

B11: I-1542 (peptide)
peptide: Ac-[αAllylPro]DQ[B5(15)]DEAAF[hSer][S8]F[Bta]Q-NH2
modifications: staple 1-4, 4-11; not fully specified; printed as Ac-PL3-Asp-Gln-B5-Asp-Glu-Ala-Ala-Phe-Hse-S8-Phe-BztA-Gln-NH2
B11: the “NanoBRET Abs IC50” value in experiment [2] is 49.1 µM.

B12: I-1549 (peptide)
peptide: Ac-[αAllylPro]DF[B5(15)]DEAAFQ[S8]F[Bta]Q-NH2
modifications: staple 1-4, 4-11
Consider B12, for which the “NanoBRET Abs IC50” value in experiment [2] turned out to be 11.6 µM.

B13: I-1548 (peptide)
peptide: Ac-[αAllylPro]D[hSer][B5(15)]DEAAF[hSer][S8]F[Bta]Q-NH2
modifications: staple 1-4, 4-11; not fully specified
Take B13: in experiment [2], the “NanoBRET Abs IC50” value was greater than 20 µM.

B14: I-2271 (peptide)
peptide: Ac-[αAllylPro]D[tBuAla][B5(3)]D[Phe(3-COOH)]AAFL[PyrS2(4)][3Thi][Bta]NA[Aib]A-NH2
modifications: staple 1-4, 4-11; reading uncertain; also: printed as Ac-PL3-Asp-Npg-B5-Asp-3COOHF-Ala-Ala-Phe-Leu-PyrS2-3Thi-BztA-Asn-Ala-Aib-Ala-NH2
Regarding B14, the “NanoBRET Abs IC50” value in experiment [1] was 2.3 µM.

B15: I-2277 (peptide)
peptide: Ac-[αAllylPro]D[tBuAla][B5(32)]D[Phe(3-COOH)]AAFL[PyrS2][3Thi][Bta]NALL-NH2
modifications: staple 1-4, 4-11; also: earlier eluting staple isomer
Consider B15, for which the “NanoBRET Abs IC50” value in experiment [1] was 2.3 µM.

B16: I-2284 (peptide)
peptide: Ac-[αAllylPro]D[tBuAla][B5(4)]D[Phe(3-COOH)]AAFL[PyrS2][3Thi][Bta]NALALALA-NH2
modifications: staple 1-4, 4-11; also: later eluting staple isomer
On to B16, for which the “NanoBRET Abs IC50” value in experiment [1] was 12.9 µM.

B17: I-2283 (peptide)
peptide: Ac-[αAllylPro]D[tBuAla][B5(4)]D[Phe(3-COOH)]AAFL[PyrS2][3Thi][Bta]NALALALA-NH2
modifications: staple 1-4, 4-11; also: earlier eluting staple isomer
For B17, the “NanoBRET Abs IC50” value in experiment [1] stood at 4.5 µM.

B18: I-2289 (peptide)
peptide: Ac-[αAllylPro]D[tBuAla][B5(4)]D[Phe(3-COOH)]AAFL[PyrS2][Phe(2-CF3)][3Br4FF]S-NH2
modifications: staple 1-4, 4-11
On to B18, for which, in experiment [1], the “NanoBRET Abs IC50” value was determined as 9 µM.

B19: I-2291 (peptide)
peptide: Ac-[αAllylPro]D[tBuAla][B5(4)]D[Phe(3-COOH)]AAFL[PyrS2][3Thi][Phe(3,4-Me2)]Q-NH2
modifications: staple 1-4, 4-11
With B19, the “NanoBRET Abs IC50” value in experiment [1] came out at 4.9 µM.

B20: I-2282 (peptide)
peptide: Ac-[αAllylPro]D[tBuAla][B5(4)]D[Phe(3-COOH)]AAFL[PyrS2][3Thi][Bta]NALALA-NH2
modifications: staple 1-4, 4-11; also: later eluting staple isomer
Regarding B20, the “NanoBRET Abs IC50” value in experiment [1] turned out to be 3.7 µM.

B21: I-2275 (peptide)
peptide: Ac-[αAllylPro]D[tBuAla][B5(32)]D[Phe(3-COOH)]AAFL[PyrS2][3Thi][Bta]NLLL-NH2
modifications: staple 1-4, 4-11; also: earlier eluting staple isomer (HPLC peak)
Turning to B21, in experiment [1], the “NanoBRET Abs IC50” value turned out to be 3.5 µM.

B22: I-2268 (peptide)
peptide: Ac-[αAllylPro]D[tBuAla][B5(3)]D[Phe(3-COOH)]AAFL[PyrS2(4)][3Thi][Bta]NAAAAA-NH2
modifications: staple 1-4, 4-11; reading uncertain; also: printed as Ac-PL3-Asp-Npg-B5-Asp-3COOHF-Ala-Ala-Phe-Leu-PyrS2-3Thi-BztA-Asn-Ala-Ala-Ala-Ala-Ala-NH2
For B22, the “NanoBRET Abs IC50” value in experiment [1] is 3.1 µM.

B23: I-2274 (peptide)
peptide: Ac-[αAllylPro]D[tBuAla][B5(3)]D[Phe(3-COOH)]AAFL[PyrS2″][3Thi][Bta]NL-NH2
modifications: staple 1-4, 4-11
As for B23, in experiment [1], the “NanoBRET Abs IC50” value turned out to be 2 µM.

B24: I-2281 (peptide)
peptide: Ac-[αAllylPro]D[tBuAla][B5(4)]D[Phe(3-COOH)]AAFL[PyrS2][3Thi][Bta]NALALA-NH2
modifications: staple 1-4, 4-11; also: earlier eluting staple isomer
Regarding B24, the “NanoBRET Abs IC50” value in experiment [1] came to 4.3 µM.

B25: I-2292 (peptide)
peptide: Ac-[αAllylPro]D[tBuAla][B5(28)]D[Phe(3-COOH)]QAFV[PyrS2][3Thi][34MeF]A-NH2
modifications: staple 1-4, 4-11
Take B25: the “NanoBRET Abs IC50” value in experiment [1] was determined as 2.7 µM.

B26: I-2269 (peptide)
peptide: Ac-[αAllylPro]D[tBuAla][B5(3)]D[Phe(3-COOH)]AAFL[PyrS2″][3Thi][Bta]NAAAAAAA-NH2
modifications: staple 1-4, 4-11
Regarding B26, the “NanoBRET Abs IC50” value in experiment [1] was 2.3 µM.

B27: I-1543 (peptide)
peptide: Ac-[αAllylPro]DQ[B5(15)]DEAAF[hSer][S8]F[Bta]Q-NH2
modifications: staple 1-4, 4-11; not fully specified; printed as Ac-PL3-Asp-Gln-B5-Asp-Glu-Ala-Ala-Phe-Hse-S8-Phe-BztA-Gln-NH2
As to B27, in experiment [2], the “NanoBRET Abs IC50” value is greater than 20 µM.

B28: I-1536 (peptide)
peptide: Ac-[αAllylPro]D[hLeu][B5(15)]DEAAFL[S8]F[Bta]Q-NH2
modifications: staple 1-4, 4-11
Consider B28, for which the “NanoBRET Abs IC50” value in experiment [2] came out at 18.4 µM.
